# According to article PMC7181697, “Molecular basis for assembly of the shieldin complex and its implications for NHEJ” (Nature Communications, 2020):
# B1: cREV1 CTD (chimeric REV1 CTD: POL κ RIR fused to the N-terminus of REV1 CTD) (other, UniProt Q9UBT6 562-577, looked up)
# chain: SHKKSFFDKKRSERKWGLSSLQSDPAGCVRPPAPNLAGAVEFNDVKTLLREWITTISDPMEEDILQVVKYCTDLIEEKDLEKLDLVIKYMKRLMQQSVESVWNMAFDFILDNVQVVLQQTYGSTLKVT
# notes: source: E. coli BL21(DE3), purified (Ni-IDA, SEC)
# B2: SHLD3(1–82) with C-terminal His6-tag (domain or fragment, human, UniProt Q6ZNX1 1-82, looked up)
# chain: MTTEVILHYRPCESDPTQLPKIAEKAIQDFPTRPLSRFIPWFPYDGSKLPLRPKRSPPVISEEAAEDVKQYLTISEHDAKSH
# notes: SHLD3, human, residues 1-82; SHLD3(1-82) expressed alone for biochemical studies (pET28a(+)); source: E. coli BL21(DE3), purified (Ni-IDA, SEC)
# B3: REV3(1847-1906) (domain or fragment, human, UniProt O60673 1847-1906, looked up)
# chain: MLTPTPDSSPRSTSSPSQSKNGSFTPRTANILKPLMSPPSREEIMATLLDHDLSETIYQE
# notes: amplified from cDNA of Jurkat cells; The methods name two vectors for REV3 truncations (His6-MBP and C-terminal His6); also called RBM1 of REV3; source: E. coli BL21(DE3), purified (Ni-IDA, SEC)
# B4: MBP-SHLD2(1–60) (domain or fragment, human, UniProt Q86V20 1-60, looked up)
# chain: MSGGSQVHIFWGAPIAPLKITVSEDTASLMSVADPWKKIQLLYSQHSLYLKDEKQHKNLE
# notes: SHLD2, human, residues 1-60; Modified pET28a(+) with His6-MBP tag; also called MBP-1–60; source: E. coli BL21(DE3), purified (Ni-IDA, SEC); not shown: MBP, N-terminal, kept
# B5: MBP-REV3(1847-1906) (domain or fragment, human, UniProt O60673 1847-1906, looked up)
# chain: B3 chain
# notes: Modified pET28a(+) with His6-MBP tag; source: E. coli BL21(DE3), purified (Ni-IDA, SEC)
# What was measured:
# Settings in all cases: both partners purified
# [1] = target: T1, REV7^K44A-SHLD3(1–82)^F38A (human, UniProt Q9UI95 1-211; Q6ZNX1 1-82, K44A | F38A); test: ITC; ITC200, 25 °C, 20 mM Tris pH 8.0, 150 mM NaCl, 1% glycerol, 1 mM TCEP; one set of sites model
# T1 construct: REV7 (MAD2B, MAD2L2), human, full length; SHLD3, human, residues 1-82; cloned without His-tag; source: E. coli BL21(DE3), co-expressed (pETduet), purified (Ni-IDA, SEC)
# [2] = target: T2, REV7^K44A-SHLD3(45–82) (human, UniProt Q9UI95 1-211; Q6ZNX1 45-82, K44A); test: as above
# T2 construct: REV7 (MAD2B, MAD2L2), human, full length; SHLD3, human, residues 45-82; cloned without His-tag; source: E. coli BL21(DE3), co-expressed (pETduet), purified (Ni-IDA, SEC)
# [3] = target: T3, REV7^K44A-SHLD3(1–82)^FIPWFP/AIAAAA (human, UniProt Q9UI95 1-211; Q6ZNX1 1-82, K44A | FIPWFP/AIAAAA); test: as above
# T3 construct: REV7 (MAD2B, MAD2L2), human, full length; SHLD3, human, residues 1-82; the FXPWFP motif stands at 38-43; cloned without His-tag; also called REV7^K44A-SHLD3(1–82)^5A; source: E. coli BL21(DE3), co-expressed (pETduet), purified (Ni-IDA, SEC)
# [4] = target: T4, REV7 (full length, wild type) (human, UniProt Q9UI95 1-211); test: as above
# T4 construct: REV7 (MAD2B, MAD2L2), human, full length; Two copies (closed C-REV7 and open O-REV7) stand in the crystal structure 6KTO; also called REV7^WT; MAD2B; source: E. coli BL21(DE3), purified (Ni-IDA, SEC); alone or co-expressed with SHLD3 and SHLD2 truncations
# [5] = target: T5, REV7^Y63A (human, UniProt Q9UI95 1-211, Y63A); test: as above
# T5 construct: REV7 (MAD2B, MAD2L2), human, full length; source: E. coli BL21(DE3), purified (Ni-IDA, SEC); alone or co-expressed with SHLD3(1-82)
# [6] = target: T6, REV7^W171A (human, UniProt Q9UI95 1-211, W171A); test: as above
# T6 construct: REV7 (MAD2B, MAD2L2), human, full length; source: E. coli BL21(DE3), purified (Ni-IDA, SEC); alone or co-expressed with SHLD3(1-82)
# [7] = target: T7, REV7^E35A-SHLD3(1–82)-REV7^K129A (human, UniProt Q9UI95 1-211; Q6ZNX1 1-82; Q9UI95 1-211, E35A | K129A); test: as above
# T7 construct: REV7 (MAD2B, MAD2L2), human, full length; the C-REV7 of the dimer; SHLD3, human, residues 1-82; cloned without His-tag; the O-REV7 of the dimer; also called E35A-1–82 + K129A; reconstituted conformational dimer; source: reconstituted from purified REV7^E35A-SHLD3(1–82) and purified REV7^K129A (both E. coli BL21(DE3)); copies: + +
# [8] = target: T8, REV7^K129A (human, UniProt Q9UI95 1-211, K129A); test: as above
# T8 construct: REV7 (MAD2B, MAD2L2), human, full length; also called O-REV7 (as used in the ITC and SEC experiments); source: E. coli BL21(DE3), purified (Ni-IDA, SEC); alone or co-expressed with SHLD3(1-82)
# [9] = target: T7, REV7^E35A-SHLD3(1–82)-REV7^K129A; test: SEC; Superdex 200 Increase 10/300 GL, 20 mM Tris/HCl pH 8.0, 150 mM NaCl, 1% glycerol, 1 mM TCEP; proteins mixed and incubated 10 min on ice; 0.5 ml fractions on SDS-PAGE, Coomassie
# [10] = target: T9, REV7^K44A-SHLD3(1–82)-REV7^K129A (human, UniProt Q9UI95 1-211; Q6ZNX1 1-82; Q9UI95 1-211, K44A | K129A); test: as above
# T9 construct: REV7 (MAD2B, MAD2L2), human, full length; the C-REV7 of the dimer; SHLD3, human, residues 1-82; cloned without His-tag; the O-REV7 of the dimer; also called K44A-1–82 + K129A; reconstituted conformational dimer; source: reconstituted from purified REV7^K44A-SHLD3(1–82) and purified REV7^K129A (both E. coli BL21(DE3)); copies: + +
# [11] = target: T10, MBP-REV7^K129A (human, UniProt Q9UI95 1-211, K129A); test: as above
# T10 construct: REV7 (MAD2B, MAD2L2), human; The cloning of this construct is not described in the methods; also called O-REV7; source: E. coli BL21(DE3), purified (Ni-IDA, SEC)
# T10 sequence (Q9UI95 whole entry K129A): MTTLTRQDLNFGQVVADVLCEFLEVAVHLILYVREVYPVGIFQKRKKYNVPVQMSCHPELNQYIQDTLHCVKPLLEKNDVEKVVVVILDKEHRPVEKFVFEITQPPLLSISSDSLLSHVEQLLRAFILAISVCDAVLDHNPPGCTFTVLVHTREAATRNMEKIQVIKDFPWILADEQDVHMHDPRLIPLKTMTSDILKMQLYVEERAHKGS
# T7 sequence (Q9UI95 whole entry E35A, chain 1 of 2, the tested form may be a part): as the sequence (Q9UI95 whole entry K129A) above, with E35A, A129K counted along it
# T7 sequence (Q9UI95 whole entry K129A, chain 3 of 2, the tested form may be a part): as the sequence (Q9UI95 whole entry K129A) above
# T1 sequence (Q9UI95 whole entry K44A, the tested form may be a part, one chain of several): as the sequence (Q9UI95 whole entry K129A) above, with K44A, A129K counted along it
# T3 sequence (Q9UI95 whole entry K44A, the tested form may be a part, one chain of several): as the sequence (Q9UI95 whole entry K129A) above, with K44A, A129K counted along it
# T2 sequence (Q9UI95 whole entry K44A, the tested form may be a part, one chain of several): as the sequence (Q9UI95 whole entry K129A) above, with K44A, A129K counted along it
# T9 sequence (Q9UI95 whole entry K44A, chain 1 of 2, the tested form may be a part): as the sequence (Q9UI95 whole entry K129A) above, with K44A, A129K counted along it
# T9 sequence (Q9UI95 whole entry K129A, chain 3 of 2, the tested form may be a part): as the sequence (Q9UI95 whole entry K129A) above
# T4 sequence (Q9UI95 whole entry, the tested form may be a part): as the sequence (Q9UI95 whole entry K129A) above, with A129K counted along it
# T5 sequence (Q9UI95 whole entry Y63A): as the sequence (Q9UI95 whole entry K129A) above, with Y63A, A129K counted along it
# T6 sequence (Q9UI95 whole entry W171A): as the sequence (Q9UI95 whole entry K129A) above, with A129K, W171A counted along it
# T8 sequence (Q9UI95 whole entry K129A): as the sequence (Q9UI95 whole entry K129A) above
binder,measurement,setting,value
B1,Kd,[1],6500 nM
same,Kd,[2],1400 nM
same,Kd,[3],1100 nM
B2,Kd,[4],~130 nM
same,Kd,[5],~200 nM
same,Kd,[6],~200 nM
B3,Kd,[7],46 nM
same,binding result,[8],binds
B4,binding result,[9],binds
same,binding result,[10],binds
B5,binding result,[11],binds
